From PMC9335285 (Proceedings of the National Academy of Sciences of the …, 2022) come the findings set out here.

The series concerns the molecule itself. The series can be described thus: cross-linking.

B1: full-length Mycobacterium tuberculosis MmpL3 (natural protein)
chain: MFAWWGRTVYRYRFIVIGVMVALCLGGGVFGLSLGKHVTQSGFYDDGSQSVQASVLGDQVYGRDRSGHIVAIFQAPAGKTVDDPAWSKKVVDELNRFQQDHPDQVLGWAGYLRASQATGMATADKKYTFVSIPLKGDDDDTILNNYKAIAPDLQRLDGGTVKLAGLQPVAEALTGTIATDQRRMEVLALPLVAVVLFFVFGGVIAAGLPVMVGGLCIAGALGIMRFLAIFGPVHYFAQPVVSLIGLGIAIDYGLFIVSRFREEIAEGYDTETAVRRTVITAGRTVTFSAVLIVASAIGLLLFPQGFLKSLTYATIASVMLSAILSITVLPACLGILGKHVDALGVRTLFRVPFLANWKISAAYLNWLADRLQRTKTREEVEAGFWGKLVNRVMKRPVLFAAPIVIIMILLIIPVGKLSLGGISEKYLPPTNSVRQAQEEFDKLFPGYRTNPLTLVIQTSNHQPVTDAQIADIRSKAMAIGGFIEPDNDPANMWQERAYAVGASKDPSVRVLQNGLINPADASKKLTELRAITPPKGITVLVGGTPALELDSIHGLFAKMPLMVVILLTTTIVLMFLAFGSVVLPIKATLMSALTLGSTMGILTWIFVDGHFSKWLNFTPTPLTAPVIGLIIALVFGLSTDYEVFLVSRMVEARERGMSTQEAIRIGTAATGRIITAAALIVAVVAGAFVFSDLVMMKYLAFGLMAALLLDATVVRMFLVPSVMKLLGDDCWWAPRWARRLQTRIGLGEIHLPDERKRPVSNGRPARPPVTAGLVAARAAGDPRPPHDPTHPLAESPRPARSSPASSPELTPALEATAAPAAPSGASTTRMQIGSSTEPPTTRLAAAGRSVQSPASTPPPTPTPPSAPSAGQTRAMPLAANRSTDAAGDPAEPTAALPIIRSDGDDSEAATEQLNARGTSDKTRQRRRGGGALSAQDLLRREGRL
Consider B1, for which the binding result is given as “binds”.
